# T1: hTie2-mFc (human)
# T1 chain: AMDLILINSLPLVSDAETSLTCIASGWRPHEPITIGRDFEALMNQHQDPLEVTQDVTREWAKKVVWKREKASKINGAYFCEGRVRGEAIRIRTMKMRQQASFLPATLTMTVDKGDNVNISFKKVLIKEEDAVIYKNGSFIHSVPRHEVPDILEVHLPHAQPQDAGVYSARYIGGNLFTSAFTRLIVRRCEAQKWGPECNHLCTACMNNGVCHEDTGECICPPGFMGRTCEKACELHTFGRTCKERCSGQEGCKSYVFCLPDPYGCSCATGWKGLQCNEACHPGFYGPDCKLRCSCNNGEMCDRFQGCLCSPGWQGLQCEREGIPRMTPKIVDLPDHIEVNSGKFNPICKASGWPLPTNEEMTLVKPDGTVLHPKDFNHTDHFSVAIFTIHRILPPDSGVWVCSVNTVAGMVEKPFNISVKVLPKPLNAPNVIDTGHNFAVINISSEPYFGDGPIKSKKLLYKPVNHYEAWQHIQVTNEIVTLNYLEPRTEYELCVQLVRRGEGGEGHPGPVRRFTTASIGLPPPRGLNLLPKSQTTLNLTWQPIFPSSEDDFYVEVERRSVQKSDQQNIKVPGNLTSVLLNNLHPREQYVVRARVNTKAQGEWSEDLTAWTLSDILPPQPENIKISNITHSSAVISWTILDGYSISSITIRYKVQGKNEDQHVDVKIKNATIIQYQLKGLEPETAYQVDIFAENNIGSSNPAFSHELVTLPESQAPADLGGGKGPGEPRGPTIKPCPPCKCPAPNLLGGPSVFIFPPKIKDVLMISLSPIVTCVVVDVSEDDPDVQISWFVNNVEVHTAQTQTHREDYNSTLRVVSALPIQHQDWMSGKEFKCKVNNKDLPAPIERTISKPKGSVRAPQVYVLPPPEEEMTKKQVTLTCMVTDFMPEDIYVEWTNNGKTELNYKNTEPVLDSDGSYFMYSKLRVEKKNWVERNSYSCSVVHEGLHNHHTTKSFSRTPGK
# Legend:
# [1] = biological target: T2, hTie2 (EGF) (human, UniProt Q02763 210-344); experiment: Luminex bead binding
# T2 construct: Domain-deletion construct linked to Luminex beads
# T2 sequence (Q02763 other isoform, or with tags, fused parts or gaps limits assumed): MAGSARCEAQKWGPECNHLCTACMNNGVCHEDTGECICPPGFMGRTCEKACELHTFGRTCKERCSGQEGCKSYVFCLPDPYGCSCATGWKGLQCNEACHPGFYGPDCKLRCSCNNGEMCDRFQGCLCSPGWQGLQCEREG
# Experimental: (§1) For binding, 25 μl of anti-Tie2 antibody (25 μg/ml) was added to 75 μl of the above created Luminex bead mixture (3×10³ beads per construct) in binding buffer (PBS, 0.05% Tween 20, 1 mg/ml BSA, 0.05% sodium azide) into a 96 well filter plate (Millipore). Incubation was at room temperature (RT) for 90 min or overnight at 4° C. with shaking. The beads were washed 3× with washing buffer (PBS+0.05% Tween 20) resuspended in 100 μl binding buffer containing PE (phycoerythrine)-labeled anti human kappa or PE-labeled anti mouse Fab secondary antibody and incubated at RT for 45 min with shaking. Samples were washed 2× more and binding signal (MFI) for each bead was determined using a Luminex L200 or FLEXMAP3D instrument. Bead linked human Tie2 was used as positive control and bead linked human Tie1 was used to measure family cross-reactivity. In general MFI signals greater than 500 units represent significant binding.
# [2] = biological target: T3, hTie2 (Ig1-Ig2-EGF) (human, UniProt Q02763 24-344); experiment: Luminex bead binding
# T3 construct: Domain-deletion construct; also used for H/D exchange
# Experimental: as §1
# [3] = biological target: T4, hTie2 (Ig2-EGF) (human, UniProt Q02763 121-344); experiment: Luminex bead binding
# T4 construct: Domain-deletion construct linked to Luminex beads
# T4 sequence (Q02763 other isoform, or with tags, fused parts or gaps limits assumed): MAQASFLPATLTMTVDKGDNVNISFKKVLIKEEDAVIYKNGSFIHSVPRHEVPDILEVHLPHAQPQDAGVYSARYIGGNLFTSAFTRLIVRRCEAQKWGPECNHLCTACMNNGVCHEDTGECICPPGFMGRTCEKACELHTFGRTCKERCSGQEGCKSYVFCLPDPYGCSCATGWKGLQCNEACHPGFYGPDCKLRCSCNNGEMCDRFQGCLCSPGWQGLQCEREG
# Experimental: as §1
# [4] = biological target: T1, hTie2-mFc; experiment: Luminex beads, 25 ug/ml mAb
# Experimental: as §1
# [5] = biological target: T5, hTie2 (FN) (human, UniProt Q02763 445-730); experiment: Luminex beads, 25 ug/ml mAb
# T5 construct: also called hTie2 (FN)-hFc
# T5 sequence (Q02763 445-730 limits assumed): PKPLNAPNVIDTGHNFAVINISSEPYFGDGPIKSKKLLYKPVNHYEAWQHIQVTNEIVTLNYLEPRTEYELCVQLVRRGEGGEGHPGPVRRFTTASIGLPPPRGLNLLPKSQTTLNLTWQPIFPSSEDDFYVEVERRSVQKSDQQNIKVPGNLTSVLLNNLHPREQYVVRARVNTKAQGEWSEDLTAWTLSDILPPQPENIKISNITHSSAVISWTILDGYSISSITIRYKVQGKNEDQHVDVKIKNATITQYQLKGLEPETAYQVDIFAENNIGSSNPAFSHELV
# Experimental: as §1
# [6] = biological target: T6, hTie2 (Ig3-FN) (human, UniProt Q02763 350-730); experiment: Luminex beads, 25 ug/ml mAb
# T6 construct: also called hTie2 (Ig3, FN)-hFc
# T6 sequence (Q02763 350-730 limits assumed): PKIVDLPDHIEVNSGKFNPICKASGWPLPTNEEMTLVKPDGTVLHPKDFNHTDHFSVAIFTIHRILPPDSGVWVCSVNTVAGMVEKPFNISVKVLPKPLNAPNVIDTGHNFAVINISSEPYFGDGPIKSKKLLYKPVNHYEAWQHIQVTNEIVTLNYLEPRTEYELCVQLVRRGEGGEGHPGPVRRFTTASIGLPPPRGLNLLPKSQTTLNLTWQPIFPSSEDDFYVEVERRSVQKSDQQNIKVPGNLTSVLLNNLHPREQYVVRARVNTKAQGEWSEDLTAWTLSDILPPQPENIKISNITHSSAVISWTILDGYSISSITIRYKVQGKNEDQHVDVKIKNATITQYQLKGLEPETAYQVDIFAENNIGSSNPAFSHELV
# Experimental: as §1
# [7] = biological target: T7, hTie2-His (human, UniProt Q02763 23-745); experiment: blocking ELISA: antibody premixed with 0.8 nM biotin-hTie2-His, binding to plate-coated Bow-Ang2
# T7 construct: also called ecto-Tie2 fused to 6xHis; biotin-Tie2-His
# Experimental: Tie2 is known to interact with angiopoietins (Ang1, Ang2, Ang3 and Ang4). An initial set of experiments was therefore conducted to evaluate the ability of anti-Tie2 antibodies to block Tie2 binding to Ang2. In this first set of experiments, a quantitative blocking immunoassay was utilized. Briefly, solutions of 0.8 nM biotinylated ecto-Tie2 fused to 6×His (SEQ ID NO:2) were premixed with anti-Tie2 antibody ranging from ˜50 nM to 0 nM in serial dilutions. After a 1-hour incubation at room temperature, the amount of Tie2-His bound to plate coated Bow-Ang2 was measured by sandwich ELISA. Bow-Ang2 (SEQ ID NO:13), an Ang2 construct that comprises the Fc domain of hIgG1 flanked by one FD domain of Ang2 at both termini, was coated at 2 μg/ml on a 96 well microtiter plate and blocked with BSA. Plate-bound biotin-Tie2-His was detected using HRP conjugated streptavidin, and developed using BD OptEIA™ (BD Biosciences Pharmingen, San Diego, Calif.). Signals of OD₄₅₀ nm were recorded and data was analyzed using GraphPad Prism to calculate IC₅₀ values. IC₅₀s were defined as the amount of antibody required to reduce 50% of biotin-Tie2-His detectable to plate bound Bow-Ang2 ligand. In Table 9, an antibody is designated an “enhancer” if the addition of the antibody increases the amount of Tie2-His bound to the Bow-Ang2-coated surface relative to the no antibody control.
MFI [4],MFI [5],MFI [6],IC50 [7],Binder,binding result [1],binding result [2],binding result [3]
2910 MFI,4530 MFI,3840 MFI,0.189 nM,"H1H2339B (antibody, V domains shown, Tested as H1H2339B (human IgG format, H1H prefix)) VH: EVQLVESGGGLVQPGGSLRLSCAASGFTFSSYAMNWVRQAPGKGLEWVSSISGSGGNTYYADSVKGRFTISRDNSKNTLYLQLNSLRAEDTAVYYCAKDHSLSWYRNVFDIWGQGTMVTVSS VL: not shown",no binding (tested: MFI >500 = significant binding),no binding (tested: MFI >500 = significant binding),no binding (tested: MFI >500 = significant binding)
3010 MFI,5150 MFI,4600 MFI,1.03 nM,"H1H2340B (antibody, V domains shown, Tested as H1H2340B (human IgG format, H1H prefix); also called HIH2340B) VH: EVQLVESGGGLVQPGGSLRLSCAASGFTFSRYWMSWVRQAPGMGLEWVANIKQDGSEKNYVDSVKGRFTVSRDNAKNSLYLQMNSLRAEDTAVYYCASAIFGVVITSYWGQGTLVTVSS VL: not shown",no binding (tested: MFI >500 = significant binding),no binding (tested: MFI >500 = significant binding),no binding (tested: MFI >500 = significant binding)

# From patent publication US20170174789A1 (Regeneron, published 2017)
